The target in test [1] is T1, mouse GPNMB endogenously expressed on B16F10 cells (mouse, UniProt Q99P91 23-574).
T1 construct: whole, on cells; also called moGPNMB
T1 sequence (looked up): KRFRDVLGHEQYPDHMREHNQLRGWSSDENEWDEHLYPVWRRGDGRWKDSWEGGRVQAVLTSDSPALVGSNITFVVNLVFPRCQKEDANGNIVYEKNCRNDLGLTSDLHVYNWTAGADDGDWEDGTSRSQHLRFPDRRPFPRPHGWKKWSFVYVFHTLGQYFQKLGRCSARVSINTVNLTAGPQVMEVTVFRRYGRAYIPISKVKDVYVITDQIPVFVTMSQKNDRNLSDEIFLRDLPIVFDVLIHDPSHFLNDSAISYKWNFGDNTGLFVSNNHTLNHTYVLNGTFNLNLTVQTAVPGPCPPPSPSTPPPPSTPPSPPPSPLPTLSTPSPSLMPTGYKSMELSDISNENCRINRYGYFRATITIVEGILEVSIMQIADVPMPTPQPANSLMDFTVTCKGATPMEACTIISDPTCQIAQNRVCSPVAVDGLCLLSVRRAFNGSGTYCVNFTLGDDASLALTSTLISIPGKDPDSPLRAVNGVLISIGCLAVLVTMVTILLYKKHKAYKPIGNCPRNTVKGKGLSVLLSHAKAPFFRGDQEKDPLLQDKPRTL
In words: FACS, B16F10 cells. As to the method: (§1) Recombinant anti-GPNMB antibodies of the present disclosure were examined for their ability to bind human and/or mouse GPNMB expressed on Freestyle293-huGPNMB+ or B16F10 cells, respectively. B16F10 cells are a murine melanoma cell line from a C57BL/6J mouse that endogenously express high levels of mouse GPNMB. The antibodies were also tested for their ability to bind to a human macrophage cell line (U937 cells) engineered to express human GPNMB. Cells were harvested, plated at 100,000 cells/well in a 96-well round bottom plate, and incubated in 100 μl FACS buffer (PBS containing 2% FBS, 2 mM EDTA) containing anti-GPNMB monoclonal antibodies of the present disclosure for 30 minutes on ice. Cells were then washed and incubated in 100 ul FACS buffer containing 1 μg/ml APC-conjugated anti-human IgG secondary antibody for 30 minutes in ice. Cells were washed twice in cold FACS buffer and acquired on a BD FACS Canto. Data analysis and calculation of MFI values was performed with FlowJo (TreeStar) software version 10.0.7. […]

The target in test [2] is T2, full-length untagged human GPNMB expressed on cells (human, UniProt Q14956 23-572).
T2 construct: also used here for GPNMB on human monocyte-derived macrophages in the functional assays; also called huGPNMB; Freestyle293-huGPNMB+
T2 sequence: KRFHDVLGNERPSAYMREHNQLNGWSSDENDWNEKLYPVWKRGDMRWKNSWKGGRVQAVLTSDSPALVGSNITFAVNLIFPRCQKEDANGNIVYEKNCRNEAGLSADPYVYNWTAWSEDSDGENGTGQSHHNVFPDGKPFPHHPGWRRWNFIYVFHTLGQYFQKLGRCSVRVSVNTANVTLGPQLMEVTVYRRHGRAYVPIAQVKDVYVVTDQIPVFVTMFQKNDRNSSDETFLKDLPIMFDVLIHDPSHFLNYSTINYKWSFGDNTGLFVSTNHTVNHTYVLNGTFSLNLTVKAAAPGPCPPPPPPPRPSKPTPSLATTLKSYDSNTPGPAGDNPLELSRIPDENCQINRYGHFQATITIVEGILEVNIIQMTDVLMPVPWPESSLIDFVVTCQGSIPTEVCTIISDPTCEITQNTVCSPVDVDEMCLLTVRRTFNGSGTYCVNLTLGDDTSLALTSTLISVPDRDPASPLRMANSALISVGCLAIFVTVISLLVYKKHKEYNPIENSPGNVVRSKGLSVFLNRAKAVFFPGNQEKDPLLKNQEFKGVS
In words: FACS titration, FS293-huGPNMB+ cells. As to the method: Cell-based binding measurements were also performed to measure the apparent affinities of anti-GPNMB antibodies of the present disclosure to cell-surface expressed GPNMB. Serial dilutions of the monoclonal anti-GPNMB antibodies were added to 100,000 Freestyle293-huGPNMB+ or B16F10 cells and allowed to achieve binding equilibrium at 4° C. After addition of fluorescently labeled secondary antibody and brief washing steps, MFI values as a function of titrated antibody concentration was recorded via FACS analysis. Curves were fit using nonlinear regression analysis with Graphpad Prism 6 software.

In test [3] the target is T1, mouse GPNMB endogenously expressed on …. In words: FACS on B16F10 mouse melanoma cells (endogenous mouse GPNMB); single antibody concentration (not given); APC anti-human IgG secondary; MFI as fold over background. On the procedure:
as §1

As a reminder, the EC50 is the concentration needed to bring the measured effect to its halfway point. A lower EC50 goes with a more potent agent.

B1: anti-GPNMB antibody GPN-65 (antibody, human IgG1, V domains shown)
VH: QLQLQQSGTEVVKPGASVKIPCKASGYAFSSYWMNWVKQRPGKGLEWIGQIYPGDGDTNDNGKFEGKATLTVDKSSNTAYIQLSSLTSEDSAVYFCARSPLHLRGSMDYWGQGTSVTVSS
VL: SIVMTQTPKFLLVSAGDRVTITCKASQSVSNDVAWFQQKPGQSPELLIYSASNRYTGVPDRFTGSGYGTDFTFTISTVQAEDLAVYFCQQNYYSPFTFGGGTRLEIK
notes: chimeric
Consider B1, for which the “MFI fold over background” value in test [1] came to 6.9 fold. The molecule also had an EC50 in test [2] of 2.6 nM.

B2: anti-GPNMB antibody GPN-34 (antibody, human IgG1, V domains shown)
VH: EVKLVESGGGLVQPGRSLKLSCAASGFNFYDYWMGWVRQAPGKGLEWIGEINKDSRTINYTPFLKDRFTISRDNAQNTLYLQMSKLGSEDTAIYYCAREGRVPFDYWGQGVMVTVSS
VL: DIQMTQSPSSMSVSLGDTVTIPCRASQDVGSYVNWFQQKPGKSPRHMIYRATNLADGVPSRFSGSRSGADYSLTISSLESEDVADYHCQQYAEYPLTFGSGTKLEIK
notes: chimeric
For B2, the “MFI fold over background” value in test [1] is 1.1 fold. Further, the binding result in test [3] is given as “no binding”. In test [2], the EC50 was 0.41 nM.

B3: anti-GPNMB antibody GPN-24 (antibody, human IgG1, V domains shown)
VH: QVQLQQPGAELVKPGASVKMSCKASGYTFTSYWITWVKQRPGQGLEWIGDIHPGSGRSNYNEKFKNKATLNVDTSSSTVYMQLSSLTSEDSAVYYCARDYLFAYWGQGTLVTVSA
VL: DIQMTQSPSSLSASLGERVSLTCRASQEISGYLSWLQQKPDGTIKRLIYSTSTLDSGVPKRFSGSRSGSDYSLTISSLESEDFADYYCLQYTSSPPTFGGGTKLEIK
notes: chimeric
Take B3: the “MFI fold over background” value in test [1] is 1 fold. In addition, the binding result in test [3] was “no binding”. The molecule also returned an EC50 in test [2] of 0.22 nM.

B4: anti-GPNMB antibody GPN-07 (antibody, human IgG1, V domains shown)
VH: QVQLQQSGAEQVKPGASVKLSCKASGYTFTSYYMYWVKQRPGQGLEWIGEINPSNGGTYFNEKFKSKATLTVDKSSSTAYMHLSSLTSEDSAVYYCTRGGTYYAYWGQGTLVTVSA
VL: DIQMTQSPSSLSASLGERVSLTCRASQEMSGHLSWLQQKPDGTIKRLIYAASTLDSGVPKRFSGSRSGSDYSLTISSLESEDFADYYCLQYASYPYTFGGGTKLEIK
notes: chimeric
For B4, in test [1], the “MFI fold over background” value came out at 1 fold. Moreover, the binding result in test [3] is listed as “no binding”. Besides, it took 18.4 nM to reach a half-maximal effect in test [2] (EC50).

B5: anti-GPNMB antibody GPN-26 (antibody, human IgG1, V domains shown)
VH: EVQLQQSGPELVKPGASVKISCKASGYSFTGYYMNWVRQSPEKSLEWIGEINPSTGITTYNQKFKAKATLTVDKSSNTAFMQLKSLTSEDSAVYYCARPASWFDYWGQGTLVTVSA
VL: DIQMTQSPSSLSASLGERVSLTCRASQEISGHLSWLQQKPDGTIKRLIYAASTLDSGVPKRFSGSRSGSDYSLTISSLESEDFADYYCLQYASYPYTFGGGTKLEIK
notes: chimeric
With B5, in test [1], the “MFI fold over background” value stood at 1 fold. In test [3], the binding result is on record as “no binding”. The same molecule came in with a concentration for a half-maximal effect (EC50) in test [2] of 1.09 nM.

B6: anti-GPNMB antibody GPN-22 (antibody, human IgG1, V domains shown)
VH: QVQLQQPGAERVKPGASVKMSCKASGYTFTSYWITWVKQRPGQGLEWIGDIFPGSGSTNYHEKFKSKATLTVDTSSSTAYMQLSSLTSEDSAVYYCSRGYFGSSFSDYWGQGTSVTVSS
VL: DIQMTQSPSSLSASLGERVSLTCRTSQEISGYLSWLQQKPDGTIKRLIYSTSTLDSGVPKRFSGSRSGSDYSLTISSLESEDFADYYCLQYASSPPTFGSGTKLEIK
notes: chimeric
Turning to B6, in test [1], the “MFI fold over background” value turned out to be 1 fold. The binding result in test [3] was “no binding”. The molecule further had an EC50 in test [2] of 0.33 nM.

B7: anti-GPNMB antibody GPN-30 (antibody, human IgG1, V domains shown)
VH: EVQLQQSGPELVNPGASVRISCKASGYSFTGYYMNWVKQSPEKSLEWIGEINPNTGFTTYNQNFKAKATLTVDKSSSTAYIQLKSLTSEDSAVYYCTRPSPSFDYWGQGTTLTVSS
VL: DIQMTQSPSSLSASLGERGSLTCRASQEISGHLSWLQQKPDGTIKRLIYAASTLDSGVPKRFSGSRSGSDYSLTISSLESEDFADYYCLQYASYPYTFGGGTKLEIK
notes: chimeric
For B7, the “MFI fold over background” value in test [1] came to 1 fold. The binding result in test [3] is recorded as “no binding”. Moreover, a half-maximal effect in test [2] (EC50) was put at 1.12 nM.

B8: anti-GPNMB antibody GPN-31 (antibody, human IgG1, V domains shown)
VH: EVQLQQSGPELVKPGASVKISCKASGYSFTGYYMNWVKQSPEKNLEWIGEINPNTGGTTYNQKFKAKATLTVDKSSTTAYMQLKSLTSEDSAVYYCTRPASWFDYWGQGTLVTVSA
VL: DIQMTQSPSSLSASLGERVSLTCRASQEISGHLSWLQQKPDGTIKRLIYAASTLDSGVPKRFSGRRSGSDYSLTISSLESEDFADYYCLQYASYPYTFGGGTKLAIK
notes: chimeric
With B8, in test [1], the “MFI fold over background” value is 1 fold. In test [3], the binding result is on record as “no binding”. In test [2], this molecule registered an EC50 of 0.76 nM.

B9: anti-GPNMB antibody GPN-09 (antibody, human IgG1, V domains shown)
VH: QVQLQQSGAELVKPGASVKLSCKASGYTFTSYYIYWVKQRPGQGLEWIGEINPSNGGTYFNEKFKNKATLTVDKSSSTAYMQLSSLTSEDSAVYYCTRGGNYYAYWGQGTLVTVSA
VL: DIQMTQSPSSLSASLGERVSLTCRASQEISGHLGWLQQKPDGTIKRLIYAALTLDSGVPKRFSGSRSGSDYSLTISSLESEDFADYYCLQYASYPYTFGGGTKLEIK
notes: chimeric
As for B9, the “MFI fold over background” value in test [1] worked out at 1 fold. In addition, the binding result in test [3] is “no binding”. The EC50 in test [2] was determined as 1.31 nM.

B10: anti-GPNMB antibody GPN-25 (antibody, human IgG1, V domains shown)
VH: EVQLQQSGPELVKPGASVKISCKASGYSFTGYYMNWVKQSPEKSLEWIGEINPGSGITTYNQKFKAKATLTVDKSSSTAYLQLKSLTSEDSAVYYCARPASWFAYWGQGTLVTVSA
VL: DIQMTQSPSSLSASLGERVSFICRASQEISGHLSWLQQKPDGTIKRLIYAASTLDSGVPKRFSGSRSGSDYSLTISSLESEDFADYYCLQYASYPYTFGGGTKLEIK
notes: chimeric
Consider B10, for which the “MFI fold over background” value in test [1] turned out to be 1 fold. Further, the binding result in test [3] is reported as “no binding”. In addition, in test [2], the EC50 was 0.5 nM.

B11: anti-GPNMB antibody GPN-11 (antibody, human IgG1, V domains shown)
VH: QVQLQQPGAELVKPGASVKLSCKASGYTFTSYWMHWVKQRPGQGLEWIGEINSSNGRTNYNEKFKTKATLTVDRSSSTAYMQLSSLTSEDSAVYYCARLGYYSGSPYPYYAMDCWGQGTSVTVSS
VL: DIQMTQSPASLSVSVGETVTITCRASENIYSNLAWYQQKQGKSPQLLVYAATNLADGVPSRFSGSGSGTQYSLKINSLQSEDFGSYYCQHFWNTPPTFGGGTKLEIK
notes: chimeric
Regarding B11, in test [1], the “MFI fold over background” value was determined as 1 fold. Further, the binding result in test [3] was “no binding”. In test [2], this molecule came in with an EC50 of 0.3 nM.

B12: anti-GPNMB antibody GPN-01 (antibody, human IgG1, V domains shown)
VH: QVQLQQSGAELAKPGASVKLSCKASGYNFTNYCIHWVKQRPGQGLEWIGYINPSTGYTEYNQKFKDKATLTADKSSTTAYMQLSSLTSEDSAVYYCARGRYDEFTYWGQGTLVTVSA
VL: DIVLTQSPASLAVSLGQRATISCRASKSVSTSTYSYMHWYQQKPGQPPKLLIYLASNLESGVPARFSGSGSGTDFTLNIHPVEEEDAATYYCQHSRELPPTFGGGTKLEIK
notes: chimeric
Turning to B12, in test [1], the “MFI fold over background” value worked out at 1 fold. For the same molecule, the binding result in test [3] was “no binding”. Besides, the EC50 in test [2] came out at 0.17 nM.
